T1: wild type Escherichia coli CheY (E. coli, UniProt P0AE67 2-129)
T1 sequence: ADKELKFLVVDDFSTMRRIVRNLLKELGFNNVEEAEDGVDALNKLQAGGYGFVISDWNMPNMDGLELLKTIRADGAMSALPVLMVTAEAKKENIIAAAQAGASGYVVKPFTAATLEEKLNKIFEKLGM


Key:
[1] = molecular target: FliM 1-16 (Escherichia coli) (UniProt P06974); settings: cited from earlier work
[2] = molecular target: T1, wild type Escherichia coli CheY; assay: other fluorescence titration

| Molecule | Kd [1] [µM] | Kd [2] [µM] |
| --- | --- | --- |
| CheY (from UniProt P0AE67) | 280 | – |
| MGDSILSQAEIDALLN [FliM_(1–16) peptide (amino terminal 16 residues of E. coli FliM)] | – | 370 |

Reference: publication PMC4516285 (Biochemistry, 2015)
